Assay results: the DeepSol protein solubility set

Assay: soluble on expression in E. coli; label from the status in PepcDB or PDB records
For “MGSDKIHHHHHHMAYSDTPEQSAVINWKGRHLVVNAFAGTGKTTTLVRYAQANPDRRMLYLAYNRAVRDDAERKFPFNVECKTSHQLAWMKFGKHLKPRLTPNLRITDVARKLNTRHWPLVRMALAALNHFLCSASPALSYEHLPDENNREGLDAGNILGAAQFLWNEMSRIDSTFPVTHDTYLKLFQLSVPDLSKRWDTILFDEAQDANPVISSLVLTQNCNVVLVGDRHQQIYRFRGADNALNAPVLEGADRLWLTQSFRFGSAVAEMANVLLARQEETHPVIGNGGDDDVIDRLPADVSRYTILSRTVAGVIGAALYESMKEKIVYWVGGIEGYKTEELEDLYWFSVDMPERMRTPRLSREYRDFEEYKSMTKATGDVEMNQAIGLLDKYFPLPQKLQVLRSQATTNEKDADVVVSTAHRSKGLEWDTVMLNDDFSDITDPLLSEAARTDETNLLYVATTRARKLLVRNELLKLLCEQEESDDIAEDQFTDSNLI”, the “soluble on expression in E. coli” value was “not soluble”. For “MGSDKIHHHHHHMCIYCISKQVFCLSGLRFPYGFTPMGLHLRSLNMAYINKSNVSILRSLSCASISLYYSMSAAASHLEVDDPALAERCELEMGWQQPRSDHARTQLNATTTCSRNQWEWHVGLASNVNDDIREEQAEVGIKLPLNLNSHSDSNRQQDDWHSALVINLQKNLDASNELATEVFGIFGKTLSDSDVSLYANVGFTHEFNQSTQLLVGIAAAHELSSHHRVITELYQKELSETAYQFAYQHTPQQQLQLELSLGNALRGNALQLGADITFYFGH”, the “soluble on expression in E. coli” value was “not soluble”. In the case of “MGSDKIHHHHHHMCQRPPARRATGPFPTLTASRAAARACTVTFQPNCARPCVRQRPEAAIDMAKTYNPAHADISPAARLAALGAGEAVDLGEYRVIRATHQDRPVFFAVRNAMDAIQKHHIEGAFYETEELDIIRRHFAPGETFIDLGANVGNHALYVAMYLEPAKVLCVEPNSLAYENLLANIVLNGVEETFDLSWLGFGVSCNVGDGFGITHWVHNLGGGKLIPRDGGTISLRSGDDILADTKADFIKIDVEGMEMDVLTSLENTVARDRPKIFVEVDNENRDAVLAWVDTHGYTTHETFKRYRDNENFLFVPESESET”, the “soluble on expression in E. coli” value is reported as “not soluble”. For “MGSDKIHHHHHHMDAAKDDLEHAKHDLEHGFYNWACFSSQQAAEKAVKAVFQRMGAQAWGYSVPDFLGELSSRFEIPEELMDHALELDKACIPTRYPDALPSGSPRNRYSRIEAERLVNYAEKIIRFCEDLLSRI”, the “soluble on expression in E. coli” value was “soluble”. For “MGSDKIHHHHHHMDALVRASGLRGYPALMRDLGCDPTPLLQRYHLDEGALGSDDAMISLRAVVHLLEASAEQTRTGDLGLRLSRHQSIDVLGPLSIALQNAPTIRAAMDFAARHTFVHSPGLVYAVHKHSEFANDAAEVSIEIRLSRQPAQRQTIDLCLADIHNFTRLLAGDRYLLRAVSVPHTPVVPVSTYERFFGARVWVEQPRASLHLSRSTLAADLLGVDATLRRIAEDYIFRHFGSEQGSVSDRVRQVLRQTLGTSSHSKATVADLLALHPRTMQRRLAAEATSFEAIRDDVRRELAMRYLCETSLPLGQISLLLGLPAQSALSRACRQWYGVPPSALRKHKRAAD”, the “soluble on expression in E. coli” value was “not soluble”. In the case of “MGSDKIHHHHHHMDCFYDYHKSLSPDEYVWDYEEFLYYGSDKFIKDVFVDGGVDIALSQPAYLQFFFREPFGNTNEFGTMALKYPYRFIIGTRWDPREGEEGKRQLEEDVRKYRVKPWQMRHVKLYTAEWKEVNGGISRGWRLDSPQAFEFLEFNRELGIDIQVPHKGPTVWPLSKDAFDVHDVDTAASSFPELRFVVTHVGLPRIDDFSWIGVQDKNVYAGLAVATAFIRKRPKYFAEIMAELLFWLGPDRIIFGSDYAIWHPKWIIEDFIKFELPRDLESEYGVELTLENKKKILGENAARLWGIDVEEAKKAVREDQIASRYGAKPRVFKVEG”, the “soluble on expression in E. coli” value is reported as “not soluble”. With “MGSDKIHHHHHHMDDLLLELARQYRNRYYGKYRGFVTDNDDPEQRGRLRLMVPSVLGETPTGWALPSLPFGGLADQGLFMVPEVDAQVWVEFEAGNVNLPIWTGTFWQASGDPPAEAAKSPPTTRVLKTPSGHILQFDDESGAEKFRLAHPAGTEMTVDEKGTVIVADAKGNTLTLDADAGKVVVEDSNGNTITMSSSGTTIEDANGNKVEMAASGVTVKGQQVVVDAQTVMLAGQGGEPIIKGQSFLTLFATHVHPSAMGPTGPPIPQGEMSTLSMKVMTS” the “soluble on expression in E. coli” value was “not soluble”. For “MGSDKIHHHHHHMDEALRTYIRVVELQSFTKAAEELHISQPAVSLQLKKLEEIYETELIYRQAKKFILTATGEILYHRAKQLEGLYKQVEDEISLYHHHLKGRLRIGASFTIGEYFLPEVIAKFHALYPDITIELIIENTAKIADKVELLQVDTGLIEGQVSKKDLEISAFSDDEMCIVGRADGSLTEIEQGATWIAREEGSGTREYLDHVLSTNGWNVAEKVVAWSNMAVKQMVLEGMGYTVISKCVVQTEITSGKLQTFNEAGSLMRKFSVLKNRQRLENRIAETFLTFLKENQ”, the “soluble on expression in E. coli” value was “not soluble”. In the case of “MGSDKIHHHHHHMDEVSVWRRAWTYVVTTLAQSLPNRCLLCHQTVIEGSGVCSLCLQRCLYHGPVCLGCGRSLVNDGAFCGACRVLGALPVIAPCSYHQGLGASIAAIKYQGQFAALDVLCRALMARVTQLTEEGEIPPVSLLLPVPLHPKRLKTRGFNQAYEIALLLSKLSGIPLCDDLLRRRRDTQPQAGLTGKARRKNLLGAFELTGSCHQGSVALVDDVVTTGSTANEIATMLQLQGVRVQVWCLARAEAPGLLDTFS”, the “soluble on expression in E. coli” value is reported as “not soluble”. For “MGSDKIHHHHHHMDFIEVYPNAIPDELCDRLIETVNTHPGVIDGITGHGVDLEKKISRDITMDNFQELLPLRNELLNYTLKHSAQYFEKYALGLMGAVAVTLADEQGKPQTLTPDNFDTLGRHRVQPLVQYLYRSGTINIQHYQQGKGGYPHWHSEQFPQMGHNEALHRVVLYMFYLNDVEEGGETEFFYQQRKIKPKKGTMVIAPAGFTHSHRGNMPISGDKYIATSWVMFNRAEKLYAPVG”, the “soluble on expression in E. coli” value was “not soluble”. For “MGSDKIHHHHHHMDIKQLKFLIALDETRHFGQAAARCNITQPTLSMRLRNLEEELGLPLVNRGQRFEGFTAPGERVLAWARTVLAAYDGLQAEAAACRGHLVGTLRLGVVPMSSFDPLPLLHRLHQLHPNLRFELSSLSSEQVLEQLASNRIDLGVSYLERLDSERFDSLTLDETRMGLLYDRRHFTFGDTPLSWADLVELPLGTLTSGMHFRQSIDHNFHSRGLQPNPLIQTDAVHQLLQAVHGGFCCAIMPLDGGLETLTEHLHLHPIADACTLARLGLIMRRSAPRSALAEACFALVAEIPR”, the “soluble on expression in E. coli” value was “not soluble”. For “MGSDKIHHHHHHMDKPFRRILLIKMRFHGDMLLTTPVISSLKKNYPDAKIDVLLYQDTIPILSENPEINALYGIKNKKAKASEKIANFFHLIKVLRANKYDLIVNLTDQWMVAILVRLLNARVKISQDYHHRQSAFWRKSFTHLVPLQGGNVVESNLSVLTPLGLDSLVKQTTMSYPPASWKRMRRELDHAGVGQNYVVIQPTARQIFKCWDNAKFSAVIDALHARGYEVVLTSGPDKDDLACVNEIAQGCQTPPVTALAGKVTFPELGALIDHAQLFIGVDSAPAHIAAAVNTPLISLFGATDHIFWRPWSNNMIQFWAGDYREMPTRDQRDRNEMYLSVIPAADVIAAVDKLLPSSTTGTSL”, the “soluble on expression in E. coli” value was “not soluble”. For “MGSDKIHHHHHHMDKRIFGIETEFGISYSSPDSRPLAPEEVARYLFRKVVSWGRSSNVFLTNGSRLYLDVGSHPEYATAECDDLGQLIAHDRAGELILDDLVDEAQERLAAEGFNGTVYLFKNNTDSAGNSYGSHENYLIPRRGEFSRLAEILIPFLVTRQLIAGAGKILKTPHGATFAFSQRADHIWEGVSSATTRSRPIINTRDEPHADAEFYRRLHVIVGDSNMSETTALMKVGTVDLILRMIEAGVIMRDMRMENPIRSIREISHDLSGRALIRLANGRQLTALEIQREYLNKVTSFVAENGAHNQHVPLILDLWERTLTAIESGDTSTIDTEIDWAIKKKLMDSYRKRHGLGLDAPRIAQLDLTYHDISRTRGLYYLLQSRGAVRRVVDDTAVKDAVDAPPQTTRAKLRGDFVRRAQELGRDYTVDWVHLKLNDRAHQTILCKDPFRNVDERVDALLDSMG”, the “soluble on expression in E. coli” value was “not soluble”. For “MGSDKIHHHHHHMDKSIKSNAEKFIMIYNEIDRYMRKVLDENERTGNADLVKKMAKRNKVFEEYKDELMLFARLRNSIVHNPYNAELDPIAEPHDKIIVKYGELRDKILNPPLALDTIAVKGKNIYVVTQNESVLDVMTVMKDNNYANVPVVDNLGMIVGVFSKNTVFSYMVENEGVQIRRDTKINDFKEFIPLHKHENEFFAFVSRKTLAVEIEDMFKKRIHGKKKLSLVFITETGRVKEKILGIVTPWDIAIN”, the “soluble on expression in E. coli” value was “not soluble”. For “MGSDKIHHHHHHMDLKEKILDYKDEVVKEIQNAVRVKSVKEAPLPGMPFGEGPAKALDHFMDLAKKLGFKAEKFDNYAMHIDMGEGKETLGILAHVDVVPEGDNWTYPPYSGTIADGKIFGRGTLDDKGPAIISLFAMKAIADSGVKLNKKIRMILGADEESGSACLKYYFGELKMPYPDIAFTPDSSFPVTYAEKGSVRVKIKKKFNTLQDLVIKGGNAFNSVPNEANGVIPVDMLGEVRNKNKVEFEREGNTYKVFSAGIPAHGAYPSKGYNAVSALFEVLKDIEVKNEELKGLVTFFDKFVKMETDGKSFGVKCTDGETGELTLNLGKINLENNELEIWIDMRIPVKVKNEQIIETIKENTEDYGYEFLLHSNTQPLYVAKDSFLVSTLMNIYKELTGDNDAEPVAIGGGTYAKYAKNAVAFGALLPDQEDRMHQRDEYLEISKIDKLLQIYVEAIYRLAK”, the “soluble on expression in E. coli” value was “not soluble”. For “MGSDKIHHHHHHMDLKKWQDPLMNSELQQNYNDNLVKLAGSLEKANQDMTHVNQRISNLVIKSGGNESNEVVDARVSSLVPETEFTTLNDRINYAENALITGVGKLSTNVFDLMDKYNDIDTILKRLYGLDSSNIEIFVDDARGDDIAGTGEIDAPFKTINKAVMTLPRVLNSNSVNIWIVPGRYNEDVVIPPIMGGDIYIRSTNFETVDPTSSTGCQVRSISATGSNGYLYIAGLEETNTAGTTKNYFIKATRCGFVRITKCRMAFNTKAIDPFTAVFIDACSADVNGCYFASQNVDVRGYNTARVEVQNIVHGAKSAIGLYPQSADIFNLNSGTWEADTPTKLSGGGVVRT”, the “soluble on expression in E. coli” value was “not soluble”. For “MGSDKIHHHHHHMDLRGRLIPDYRIDTPVDAPLEYRPAVTWRCERCGKLPTRGPCTCGKRCYYCRHCLIFGKLRTCDRLVTDPRPLDPVRPDHHTELNLTSDQQRIAEAIVRTIDQRKRLLVHAVCGAGKTPMLFPGIERALSTNRRVLITAPRADVVRELTGHLRRAFQQATIVSLFGGSEDRLGIGDITISTTHQLIHYRACFDVVFIDEVDAFPYRTDRTLHRYVRQATAPGASLILLSATPSLRDRRLPTVRLMRRYHGFPLPTPRLQVPYGKHDVVDWVLTHAGKPRLLFVPQVEALETWQTCLQQQGITCETVHAADPDRITKVARFRQTTGVLLTTTILERGVTLINVQVAVLDADHSFSSAALIQISGRVGRSADFPEGDVVLFANDRSDAMYEAIDHIKRANREGFR”, the “soluble on expression in E. coli” value was “not soluble”. For “MGSDKIHHHHHHMDLRQLPALNAIRAFEAAARHENFSRAADELFVTHGAVSHQVRALEEELGVQLFARNGKRLCLTGAGMRYAQQVRTALMMLADATREVRASDRDRRLVVSMLSSFAARFVTPRIGTFIERHPEIDVELQSTNNLTDFARDDVDLAIRFGFGNYPGLHVEPLFDEVFFPACAPTLNGGKLPQTPADLVHYNLLRSDDELWRPWFDAAGLDTLTEPKRGILYQDSSNLLLAAIEGQGIALVRRSLAVHDLLDGRLVRLFDIDGASPWHYFFVCPPPLLNAPRVQAFRAWMFEEVAQFKLLCDELDARRAAGKTPAECAQEGGWKGLRAQP”, the “soluble on expression in E. coli” value was “not soluble”.
